Data: patent US10202584B2, “Red-shifted luciferase-luciferin pairs for enhanced bioluminescence” (The Regents of the University of California, priority 2016, dated 2019)

Key:
Assay in all cases: purified protein, by the assay type
Settings in all cases: other: apparent, 100 pM enzyme, substrate 0.78 to 50 μM, assay buffer pH 6.0, mean ± s.d., n = 3, 37.0 °C
[1] = test system: O=c1c(Cc2ccccc2)nc2c(-c3ccccc3)[nH]c(-c3ccccc3)cn1-2
Experimental: (§1) The final concentrations of all enzymes were 100 pM. Substrate concentrations varied from 0.78 to 50 μM, and peak bioluminescence intensities at individual substrate concentrations were used to fit the Michaelis-Menten equation. Data are shown as mean and s.d. of three independent experiments.
(§2) DH10B cells containing corresponding pBAD plasmids were grown in 5 mL LB starter cultures containing ampicillin (100 μg/mL) at 37° C. and 250 rpm overnight. Each saturated overnight culture was diluted 100-fold into 2YT media containing the appropriate antibiotics and grown under the same conditions. When OD600 reached 0.7-0.9, the expression culture was induced with L-arabinose (0.2%, w/v %) and incubated at room temperature with shaking at 250 rpm for another 16 h. Cells were harvested by centrifugation at 4700 rpm for 15 min and lysed by sonication. The resulting cell lysate was clarified by centrifugation at 18,000 rpm for 30 min at 4° C. The supernatant was incubated with Ni-NTA agarose beads (Pierce) at 4° C. for 2 h. Agarose beads loaded to a plastic column were sequentially washed with 10 mL of wash buffer 1 (pH 8.0, 50 mM Tris HCl, 20 mM Imidazole, 300 mM NaCl, 1 mM DTT) and 10 mL of wash buffer 2 (pH 8.0, 50 mM Tris HCl, 50 mM Imidazole, 300 mM NaCl, 1 mM DTT), followed by elution with elution buffer (pH 8.0, 50 mM Tris HCl, 300 mM Imidazole, 300 mM NaCl, 1 mM DTT). Proteins were buffer-exchanged into Tris-HCl (50 mM, pH 7.4) containing 1 mM DTT using Thermo Scientific Snakeskin dialysis tubing, and next concentrated using 3-kDa Amicon Ultra Centrifugal Filters (EMD Millipore). Protein concentrations were determined using the Pierce Coomassie Bradford Protein Assay Kit (Thermo Fisher). For storage, glycerol was added to a final concentration of 50% (v/v) and the resultant mixtures were kept at −20° C.
(§3) A Synergy Mx Microplate Reader (BioTek) was used for all in vitro bioluminescence characterizations. For kinetics measurements, no emission filter or monochromator was used. […]

[2] = test system: O=c1c(Cc2ccco2)nc2c(Cc3ccccc3)[nH]c(-c3ccccc3)cn1-2
Experimental: as §1, §2, §3

[3] = test system: O=c1c(Cc2ccccc2)nc2c([Se]c3ccccc3)[nH]c(-c3ccccc3)cn1-2
Experimental: as §1, §2, §3

NanoLuc luciferase (Oplophorus gracihrostris-derived, parent, SEQ ID NO: 1) (Oplophorus gracilirostris; A31E/A60N/A81I/F95D/I117V/K70R/L54V/L99Q/M102K/N193R/P142E/Q151K/Q38R/Q45L/V71I/Y165I)
Km [1]: 5.3 ± 0.2 µM
Km [2]: 11.5 ± 0.6 µM
Km [3]: 17.8 ± 1.0 µM
